The record followed here is US20030181408A1, “Genes essential for microbial proliferation and antisense thereto” (priority 1999, published 2003).

Series [1] has as its system bacterial strain engineered for expression of an antisense against rplL and rplJ (50S ribosomal subunit proteins). Briefly: microbe, parasite or virus in culture. Type of series: cell-based, E. coli. Conditions: read-out: IC50 (+I). The method, then: Antibiotics of various chemical classes and modes of action were purchased from Sigma Chemicals (St. Louis, Mo.). Stock solutions were prepared by dissolving each antibiotic in an appropriate aqueous solution based on information provided by the manufacturer. The final working solution of each antibiotic contained no more than 0.2% (w/v) of any organic solvent. To determine their potency against a bacterial strain engineered for expression of an antisense against a proliferation-required gene encoding 50S ribosomal protein, each antibiotic was serially diluted two or three fold in growth medium supplemented with the appropriate antibiotic for maintenance of the anti-sense construct. At least ten dilutions were prepared for each antibiotic. 25 μL aliquots of each dilution were transferred to discrete wells of a 384-well microplate (the assay plate) using a multi-channel pipette. Quadruplicate wells were used for each dilution of an antibiotic under each treatment condition (plus and minus inducer). Each assay plate contained twenty wells for cell growth controls (growth media replacing antibiotic), ten wells for each treatment (plus and minus inducer, in this example IPTG). Assay plates were usually divided into the two treatments: half the plate containing induced cells and an appropriate concentrations of inducer (in this example IPTG) to maintain the state of induction, the other half containing non-induced cells in the absence of IPTG.
Cells for the assay were prepared as follows. Bacterial cells containing a construct, from which expression of antisense nucleic acid against rplL and rplJ, which encode proliferation-required 50S ribosomal subunit proteins, is inducible in the presence of IPTG, were grown into exponential growth (OD600 0.2 to 0.3) and then diluted 1:100 into fresh media containing either 400 μM or 0 μM inducer (IPTG). These cultures were incubated at 37° C. for 2.5 hr. After a 2.5 hr incubation, induced and non-induced cells were respectively diluted into an assay medium at a final OD600 value of 0.0004. The medium contained an appropriate concentration of the antibiotic for the maintenance of the anti-sense construct. In addition, the medium used to dilute induced cells was supplemented with 800 μM IPTG so that addition to the assay plate would result in a final IPTG concentration of 400 μM. Induced and non-induced cell suspensions were dispensed (25 μl/well) into the appropriate wells of the assay plate as discussed previously. The plate was then loaded into a plate reader, incubated at constant temperature, and cell growth was monitored in each well by the measurement of light scattering at 595 nm. Growth was monitored every 5 minutes until the cell culture attained a stationary growth phase. For each concentration of antibiotic, a percentage inhibition of growth was calculated at the time point corresponding to mid-exponential growth for the associated control wells (no antibiotic, plus or minus IPTG). For each antibiotic and condition (plus or minus IPTG), a plot of percent inhibition versus log of antibiotic concentration was generated and the IC50 determined.

The next series relates to E. coli. Briefly: Inhibition of E. coli proliferation after IPTG induction of antisense clones (liquid growth curves, dilution spotting on plates). Type of series: cell-based, Escherichia coli. Conditions: for effect of antisense expression on E. coli growth after IPTG induction: 1 mM IPTG. The method, then: (§1) To study the effects of transcriptional induction in liquid medium, growth curves were carried out by back diluting cultures 1:200 into fresh media with or without 1 mM IPTG and measuring the OD450 every 30 minutes (min). To study the effects of transcriptional induction on solid medium, 10^2, 10^3, 10^4, 10^5, 10^6, 10^7 and 10^8 fold dilutions of overnight cultures were prepared. Aliquots of from 0.5 to 3 μl of these dilutions were spotted on selective agar plates with or without 1 mM IPTG. After overnight incubation, the plates were compared to assess the sensitivity of the clones to IPTG.
(§2) Molecule No. EcXA059, encoding a portion of the ypjA gene of Escherichia coli, was either transformed directly into Enterobacter cloacae, Salmonella typhimurium and/or Klebsiella pneumoniae or subdloned into an expression vector functional in these species and the subclones transformed into these organisms. Suitable expression vectors are well known in the art. These expression vectors were introduced into Enterobacter cloacae, Salmonella typhimurium and/or Klebsiella pneumoniae cells that were then assayed for growth inhibition according to the method of Example 1. After growth in liquid culture, cells were plated at various serial dilutions and a score determined by calculating the log difference in growth for INDUCED vs. UNINDUCED antisense RNA expression as determined by the maximum 10 fold dilution at which a colony was observed. If there was no effect of antisense RNA expression in one organism, the clone is given a score of zero “0” in that organism. In contrast, a score of “8” means that 10^8 times more cells were required to observe a colony formed on the induced state than in the non-induced state under the conditions used and in that organism.

The subject of the next series is Klebsiella pneumoniae. Briefly: Growth inhibition by IPTG-induced antisense RNA expression in Klebsiella pneumoniae (induced vs. uninduced serial dilution plating). It is filed as cell-based. The method, then: as §1, §2
(§3) Expression vectors which inhibited growth of E. coli upon induction of antisense RNA expression with IPTG were transformed directly into Enterobacter cloacae, Klebsiella pneumonia or Salmonella typhimurium. The transformed cells were then assayed for growth inhibition according to the method of Example 1. After growth in liquid culture, cells were plated at various serial dilutions and a score determined by calculating the log difference in growth for INDUCED vs. UNINDUCED antisense RNA expression as determined by the maximum 10 fold dilution at which a colony was observed. If there was no effect of antisense RNA expression in a microorganism, the clone is minus in Table V below. In contrast, a positive in Table V below means that at least 10 fold more cells were required to observe a colony on the induced plate than on the non-induced plate under the conditions used and in that microorganism.

For a further series, the system named is Salmonella typhimurium. Briefly: Growth inhibition by IPTG-induced antisense RNA expression in Salmonella typhimurium (induced vs. uninduced serial dilution plating). It is filed as cell-based. The method, then:
as §1, §2, §3

For another series, the system named is Enterobacter cloacae. Briefly: Growth inhibition by IPTG-induced antisense RNA expression in Enterobacter cloacae (induced vs. uninduced serial dilution plating). Type of series: cell-based. The method, then: as §1, §2, §3

Values after ≈ are worked out from the molar mass of the structure shown. Where a SMILES comes first, the peptide text is derived from it. Bridges are numbered along the chain shown (N, C = ends). [ ]: non-standard residue; d: D form. The star is where a group is joined. Ileψ(thiazoline)Cys = CC[C@H](C)[C@H](N)C1=N[C@H](C(=O)*)CS1; dOrn = NCCC[C@@H](N)C(=O)O

For the molecule `CN[C@@H]1[C@H](O)[C@H](NC)[C@H]2O[C@@]3(O)C(=O)C[C@@H](C)O[C@H]3O[C@@H]2[C@H]1O` [Spectinomycin], the IC50 in series [1] was below 0.15 µg/mL.

Turning to `CO/N=C(\C(=O)N[C@@H]1C(=O)N2C(C(=O)O)=C(COC(C)=O)CS[C@H]12)c1csc(N)n1` [Cefotaxime], the IC50 in series [1] was found to be 0.0241 µg/mL (≈ 0.0529 µM).

Take `CN(C)c1ccc(O)c2c1C[C@H]1C[C@H]3[C@H](N(C)C)C(O)=C(C(N)=O)C(=O)[C@@]3(O)C(O)=C1C2=O` [Minocycline]: the IC50 in series [1] is 0.00389 µg/mL (≈ 0.0085 µM).

Consider `O=C(N[C@H](CO)[C@H](O)c1ccc([N+](=O)[O-])cc1)C(Cl)Cl` [Chloramphenicol], for which, in series [1], the IC50 turned out to be 0.00151 µg/mL (≈ 0.00467 µM).

Take `NC[C@H]1O[C@H](O[C@H]2[C@H](O)[C@@H](O[C@H]3O[C@H](CO)[C@@H](O)[C@H](N)[C@H]3O)[C@H](N)C[C@@H]2N)[C@H](N)C[C@@H]1O` [Tobramycin]: the IC50 in series [1] is 0.0705 µg/mL (≈ 0.151 µM).

Consider `CCn1cc(C(=O)O)c(=O)c2ccc(C)nc21` [Nalidixic acid], for which the IC50 in series [1] was found to be 6.02 µg/mL (≈ 25.9 µM).

Turning to `CC[C@H](C)[C@H](N)C1=N[C@H](C(=O)N[C@@H](CC(C)C)C(=O)N[C@H](CCC(=O)O)C(=O)N[C@H](C(=O)N[C@H]2CCCCNC(=O)[C@H](CC(N)=O)NC(=O)[C@@H](CC(=O)O)NC(=O)[C@H](Cc3cnc[nH]3)NC(=O)[C@@H](Cc3ccccc3)NC(=O)[C@H]([C@@H](C)CC)NC(=O)[C@@H](CCCN)NC2=O)[C@@H](C)CC)CS1` [Bacitracin] ({Ileψ(thiazoline)Cys}-L[dE]IK[dOrn]I[dF]H[dD]N; lactam 4-C), the half-inhibitory concentration (IC50) in series [1] stood at 4670 µg/mL (≈ 3280 µM).

B1: EcXA082: antisense clone insert, E. coli genes hybC; hybB (nucleic acid, listed as Escherichia coli)
DNA: TGCTTTGCTCGCCTCATGACGATTATGATCGTTTTGTTTTAAAGGAGGAAGTATCGGCAGTAGACGAATGAGTACGATGTAAGCGCAAATCTCAATAGCCACAAAACCAATAGAAATCAACAGTTCTTCCCAGGTCGGGAAGTA
As to B1, the “effect of antisense expression on E. coli growth after IPTG induction” value (shortened to “effect of antisense expression”) in the series on E. coli is given as “reduction in cell growth”. Besides, the “Sensitivity of K. pneumoniae to antisense nucleic acid (growth inhibition, induced vs. uninduced)” value with Klebsiella pneumoniae is reported as “−”. Also, the “Sensitivity of S. typhimurium to antisense nucleic acid (growth inhibition, induced vs. uninduced)” value with Salmonella typhimurium is “−”.

B2: EcXA059: antisense clone insert, portion of the ypjA gene of Escherichia coli (nucleic acid, listed as Escherichia coli)
DNA: NACCANGANTGGGACCCAAATGAAAATTGAACTGAAGATTACAATCAATTTAACANCAAGTTACACAACCAATTCAGACTCCGCCAGCCCACCAATCATGATTGGACGGTGTAAGGACAACACCAACAAAAACAGGAAGTTAGAAGTCTNAGCAAAACACCGACCAGACGGTGAGGAGACATAAAAGGATACGCAAAGGAGCCGCGGCTCCTGGTAACATGAAAGCCCACAGATGTGGGCTTTTTCGTTGATGGTCAGAACGACCAGTTCACACCAGCTACCGCGTTCCACGGGGATTCCACACCGGCACTATGGCTATACCCCACCCCAAGATGCCCGCTTAACGTACTGCTGAATGAGGCTTTAATACCTGCCTGGTATATTCCACGTCTGCCCGACAAATAATTGACGAAATTACCGNCACTATTCACTTTCACCCGGTTATCATCGACAAATTCTTTGCGCACAAGCCGNCTTCAGCCACGGNTCAACTTCCATACCGNTCCCCAGACGCATGTTGTAACTCAACGTTGCGCCCAGTTCACGATATATACTGCGGGTATCGACTGATTTCGATTTCATGCCATTGGATAAATGATATTCGGGGTTATCAGCGGTGAAACCCGTTNACGATGCATACNGGGTCAGGGTTCAATTACCATCGGTAAATCGCATTCCCGGTTTCAATGTGACCGCCAANCCCGTTGCTGTNGGTAACTGGCATTGGCGGGTTCANCGGTGGTAATTTTAACCTGGTACGNTACTTTTAAAACGGGTTAAGCTTTACCGAANACCGTNCANNATTGGAAACCCNCTTTTAATGGTTNCCCAACTNGGNN
modifications: misc_feature (1)...(839): n = A,T,C or G
notes: antisense clone insert, portion of the ypjA gene of Escherichia coli
On to B2, for which the “score: log difference in growth for INDUCED vs. UNINDUCED antisense RNA expression” value in the series with E. coli (Escherichia coli, IPTG induction, maximum 10 fold dilution at which a colony was observed) was determined as 8.

B3: EcXA072: antisense clone insert, E. coli gene recJ (nucleic acid, listed as Escherichia coli)
DNA: GATTTTTACCGGATTAATTTTAAACATGGTCTGATTTCTTTTATTGAGCTAGTCAAAATGCGGTGATAAGAGCGGGATTGTCCCAATCCACGCTCTTTTTTATAGAGAAGATGACGCTAAATTGGCCAGATATTGTCGATGATAATTTG
Turning to B3, the “effect of antisense expression” value with E. coli is given as “reduction in cell growth”. The “Sensitivity of E. cloacae to antisense nucleic acid (growth inhibition, induced vs. uninduced)” value in the series with Enterobacter cloacae is “−”.

B4: EcXA104: antisense clone insert, E. coli gene hsdS (nucleic acid, listed as Escherichia coli)
DNA: GACGCGGCGAACGATTTCGGCTTGTTCTTTTACTGGAGGTAATAAAACAACTTGGGATTTGATATCTTTTCCTGAAATACCTTTTTGACCAGAAGTTGTTTTCACGCAGTTCATCATTGCATTTCGTGCTGAGGGGGATGAAAAAAATATTTCGATATATTCTGGTAAAGCATCTTT
B4: the “effect of antisense expression” value with E. coli is reported as “reduction in cell growth”.

B5: EcXA069: antisense clone insert, E. coli genes RplD; rplC (nucleic acid, listed as Escherichia coli)
DNA: TGAAATNCGACCGAAGGTAGTTTCGGAAACAGTCAGCGCGCTCTGCGCGTCTTTCAATACTAATTCCATTGCTATCTCCTTACGCCTTCACAGCTGGTTTAACGATCAGGTCGCTACCGGTTGCACCCGGGACAGCACCTTTAACCAGCAGCAGGT
modifications: misc_feature (1)...(156): n = A,T,C or G
notes: antisense clone insert, E. coli genes RplD; rplC
As to B5, in the series on Klebsiella pneumoniae, the “Sensitivity of K. pneumoniae to antisense nucleic acid (growth inhibition, induced vs. uninduced)” value is “−”. Moreover, in the series with Enterobacter cloacae, the “Sensitivity of E. cloacae to antisense nucleic acid (growth inhibition, induced vs. uninduced)” value is listed as “+ (a positive in Table V below means that at least 10 fold more cells were required to observe a colony on the induced plate than on the non-induced plate)”. Also, the “Sensitivity of S. typhimurium to antisense nucleic acid (growth inhibition, induced vs. uninduced)” value with Salmonella typhimurium is “−”.
